Laboratory results reported in article PMC3104520 (Biochemistry, 2011).
Read-outs that look alike come from different tables or passages of the source.

Assays:
Test in all cases: diffusion NMR
diffusion NMR [1] = target: the molecule itself
diffusion NMR [2] = target: the molecule itself; remark: listed apart in the source
diffusion NMR [3] = target: the molecule itself; remark: listed apart in the source

B1: Surfactant protein A (SP-A), bovine (natural protein)
chain: not shown
Diffusion NMR [1]
  stoichiometry N: ~10 molecules
Diffusion NMR [2]
  stoichiometry N: ~12 molecules
Diffusion NMR [3]
  stoichiometry N: ~9 molecules
